Test results from paper PMC9332573.

What was measured:
[1] = target: C157S mutant of hDHHC3-Δ35 (hDHHS3-Δ35), C-terminal Twin-Strep tagged (human) (UniProt Q9NYG2); assay: cryo-EM 2D classification; hDHHS3-Δ35 in GDN micelles from SEC peak 1; 200 kV Talos Arctica; 2D class averages with RELION 3; no 3D reconstruction
[2] = target: C157S mutant of hDHHC3-Δ35 (hDHHS3-Δ35), C-terminal Twin-Strep tagged (human) (UniProt Q9NYG2); assay: SDS-PAGE; purified hDHHS3-Δ35 on SDS-PAGE; dimeric band at ≈50 kDa (Figure S5A)

stoichiometry N [1]: 2
oligomeric state (number of subunits) [2]: 2
Substance: C157S mutant of hDHHC3-Δ35 (hDHHS3-Δ35), C-terminal Twin-Strep tagged (from UniProt Q9NYG2-2 36-299) (enzyme)
